Reference: patent US20170312350A1 (IMMATICS BIOTECHNOLOGIES, published 2017)

Target: MHC/IGF2BP3-001 complex on IGF2BP3-001-loaded target cells (human)
Test: cell-based or functional assay

B1: TCR R10P1A7 (TCR, V domains shown)
V domain 1: GEDVEQSLFLSVREGDSSVINCTYTDSSSTYLYWYKQEPGAGLQLLTYIFSNMDMKQDQRLTVLLNKKDKHLSLRIADTQTGDSAIYFCAESKETRLMFGDGTQLVVKP
V domain 2: GAVVSQHPSWVICKSGTSVKIECRSLDFQATTMFWYRQFPKQSLMLMATSNEGSKATYEQGVEKDKFLINHASLTLSTLTVTSAHPEDSSFYICSARAGGHEQFFGPGTRLTVLE
  EC50 (target peptide titration, IFNγ release): ~1 nM
